Experiments:
[1] = test system: P. aeruginosa strain WC-453; experiment: Time-kill assay in HEPES or CAA with 25% human serum (Tables 7, 8); assay type: cell-based, Pseudomonas aeruginosa
Procedure: Exponential phase bacteria were then pelleted and resuspended in 1/5 culture volume of 25 mM HEPES, pH 7.4 before a final adjustment to an optical density corresponding to a McFarland value of 0.5. […] All treatments were incubated at 37° C. with aeration. At time points before the addition of lysin (or buffer control) and at 1 hour and 3 hours intervals thereafter, culture samples were removed for quantitative plating on CAA agar plates.

[2] = test system: outer membrane of P. aeruginosa (CFS 1292); experiment: N-phenyl-1-napthylamine (NPN) uptake assay, outer membrane destabilization (Table 15); assay type: cell-based, Pseudomonas aeruginosa; settings: NPN fluorescence, buffer = 100, lysin 100 μg/well
Procedure: The ability of gram-negative lysins to destabilize the outer membrane of P. aeruginosa was evaluated through the use of an N-phenyl-1-napthylamine (NPN) uptake assay. […] NPN was added to a final concentration of […]. […] Changes in fluorescence were recorded (excitation 1=350 nm; emission 1=420 nm) over two hours.

[3] = test system: P. aeruginosa isolates; experiment: MIC against a range of isolates in CAA + […] human serum (Table 11); assay type: cell-based, Pseudomonas aeruginosa
[4] = test system: P. aeruginosa strains; experiment: Checkerboard synergy with meropenem in 25% CAA and […] human serum (Table 16); assay type: cell-based, Pseudomonas aeruginosa; settings: for FICI value (Run #1), with meropenem / FICI value (Run #2), with meropenem: 25% CAA and […] human serum
[5] = test system: P. aeruginosa; experiment: MIC, modified CLSI broth microdilution in CAA medium without or with […] human serum (Table 4); assay type: cell-based, Pseudomonas aeruginosa; as to CAA/HuS MIC: CAA supplemented with 2.5% human serum
From the text: 2015. […] Clinical and Laboratory Standards Institute, Wayne, Pa.

[6] = test system: Pseudomonas aeruginosa biofilm; experiment: MBEC in CAA supplemented with […] human serum (Table 14); assay type: cell-based
Procedure: (§1) Biofilms are then washed and treated with e.g., a 2-fold dilution series of the lysin in TSBg at e.g., 37° C. for 24 hours. After treatment, wells are washed, air-dried at e.g., 37° C. and stained with e.g., 0.05% crystal violet for 10 minutes.
(§2) Materials and methods: MICs were determined by broth microdilution in media supplemented with human serum and pulmonary surfactant ([…]®; Myoderm Clinical Supplies). Minimal biofilm eradicating concentrations (MBECs) were determined using standard methods. […] Fluorescence microscopy was performed after LIVE/DEAD staining (ThermoFisher) and TEM was performed.

[7] = test system: Pseudomonas aeruginosa strain CFS-1292 (meropenem resistant); experiment: MIC in 25% CAA alone, with […] human serum or […] SURVANTA (Table 13); assay type: cell-based
Procedure: as §2

[8] = test system: carbapenem-resistant P. aeruginosa strains; experiment: Resensitization of carbapenem-resistant strains, combinations with imipenem or meropenem (Tables 18-22); assay type: cell-based, Pseudomonas aeruginosa; settings: for FICI: isolate WC-452
Procedure: Such resensitization may be determined by combining the present lysins or lysin-AMP polypeptide constructs with an antibiotic in a checkerboard assay as described herein. Antibiotic-resistant bacteria, such as carbapenem-resistant P. aeruginosa, are added to the lysin or lysin-AMP polypeptide construct combination. […] See Clinical and Laboratory Standards Institute (CLSI), CLSI. […] M100 Performance Standards for Antimicrobial Susceptibility Testing; 29th Edition. Clinical and Laboratory Standards Institute, Wayne, Pa., which is herein incorporated by reference in its entirety.
Up to seven carbapenem-resistant isolates were assessed. […] See Clinical and Laboratory Standards Institute (CLSI), CLSI. […] M100 Performance Standards for Antimicrobial Susceptibility Testing; 29th Edition. Clinical and Laboratory Standards Institute, Wayne, Pa.

[9] = test system: Pseudomonas aeruginosa strain CFS-1292 (meropenem resistant); settings: strain CFS-1292; no added cations
Procedure: The activity of selected GN lysins and constructs in the presence of divalent cations was evaluated, and the impact of divalent cations at physiological concentrations was examined in the MIC assay format.

[10] = test system: biofilms formed by P. aeruginosa strain ATCC 17646; settings: strain ATCC 17646 biofilm
Procedure: as §1

B1: GN351: lysin-AMP construct: TAGGTAGG linker and amurin peptide Ecp2 C-terminal to GN316 lysin (SEQ ID NO: 32) (protein)
chain: MAILKIGSKGLEVKNLQTSLNKIGFNLVADGIFGKATDNAVRAVQAGAGLVVDGIAGPKTMYAIRNAGESHQDHLTEADLIDAARELSVDLASIKAVNQVESRGTGFTKSGKIKTLFERHIMYKKLNAKFGQAKANALAQLYPTLVNAKAGGYTGGDAELERLHGAIAIDKDCAYESASYGLFQIMGFNCVICGYDNAEEMFNDFLTGERAQLMAFVKFIKADANLWKALKDKNWAEFARRYNGPAYAQNQYDTKLAAAYKSFSTAGGTAGGARSRRRMSKRSSRRSFRKYAKSHKKNFKARSMRGGIRL
bactericidal activity (CFU decrease of 3-Log10, 3 hours after the addition of lysin) ([1]; 10 μg/mL, enumerated lysins in CAA/HuS, general statement for HEPES and CAA/HuS): bactericidal activity | CAA/HuS (Log10 CFU/mL), 1 hr ([1]; CAA + 25% human serum, lysin 10 μg/ml, 1 hr, WC-453): 4.6 Log10 CFU/mL | CAA/HuS (Log10 CFU/mL), 3 hr ([1]; CAA + 25% human serum, lysin 10 μg/ml, 3 hr, WC-453): <3.7 Log10 CFU/mL | % RFU ([2]; 5 minutes): 381 % RFU | % RFU ([2]; 10 minutes): 406 % RFU | % RFU ([2]; 20 minutes): 407 % RFU | % RFU ([2]; 40 minutes): 386 % RFU | % RFU ([2]; 60 minutes): 383 % RFU | % RFU ([2]; 100 minutes): 338 % RFU | activity against P. aeruginosa isolates in human serum or SURVANTA ([3]; Tables 11 and 12): active against a variety of P. aeruginosa isolates | MIC, CAA + […] Human Serum ([3]; strain CFS 1109 (ATCC 17646)): 1 µg/mL | MIC, CAA + […] Human Serum ([3]; strain CFS 1292): 1 µg/mL | MIC, CAA + […] Human Serum ([3]; strain CFS1539 (PA1)): 0.5 µg/mL | MIC, CAA + […] Human Serum ([3]; strain CFS 1540 (PA2)): 0.5 µg/mL | MIC, CAA + […] Human Serum ([3]; strain CFS 1541 (PA3)): 0.5 µg/mL | MIC, CAA + […] Human Serum ([3]; strain CFS 1557 (PA19)): 4 µg/mL | MIC, CAA + […] Human Serum ([3]; strain CFS 1558 (PA20)): 1 µg/mL | MIC, CAA + […] Human Serum ([3]; strain CFS 1559 (PA21)): 2 µg/mL | MIC, CAA + […] Human Serum ([3]; strain CFS 1560 (PA22)): 2 µg/mL | MIC, CAA + […] Human Serum ([3]; strain CFS 1561 (PA23)): 2 µg/mL | MIC, CAA + […] Human Serum ([3]; strain CFS 1562 (PA24)): 2 µg/mL | MIC, CAA + […] Human Serum ([3]; strain CFS 1596 (PA26)): 1 µg/mL | MIC, CAA + […] Human Serum ([3]; strain CFS 1597 (PA27)): 0.5 µg/mL | MIC, CAA + […] Human Serum ([3]; strain CFS 1669 (PA41)): 1 µg/mL | MIC, CAA + […] Human Serum ([3]; strain CFS 1674 (PA46)): 1 µg/mL | MIC, CAA + […] Human Serum ([3]; strain CFS 1675 (PA47)): 0.5 µg/mL | MIC, CAA + […] Human Serum ([3]; strain CFS 1766 (ATCC 27853)): 2 µg/mL | synergy with meropenem ([4]; FICI less than or equal to 0.5 = potent synergy): exhibited synergy with meropenem | FICI value (Run #1), with meropenem ([4]; strain CFS 1292): 0.1875 | FICI value (Run #2), with meropenem ([4]; strain CFS 1292): 0.219 | FICI value (Run #1), with meropenem ([4]; strain CFS 1557 (PA19)): 0.25 | FICI value (Run #2), with meropenem ([4]; strain CFS 1557 (PA19)): 0.292 | FICI value (Run #1), with meropenem ([4]; strain CFS 1558 (PA20)): 0.1562 | FICI value (Run #2), with meropenem ([4]; strain CFS 1558 (PA20)): 0.177 | FICI value (Run #2), with meropenem ([4]; strain CFS 1559 (PA21)): 0.177 | FICI value (Run #2), with meropenem ([4]; strain CFS 1560 (PA22)): 0.323 | FICI value (Run #2), with meropenem ([4]; strain CFS 1561 (PA23)): 0.240 | FICI value (Run #2), with meropenem ([4]; strain CFS 1562 (PA24)): 0.177 | FICI value (Run #2), with meropenem ([4]; strain CFS 1766 (ATCC 27853)): 0.109 | CAA MIC ([5]; CAA medium, no human serum): 8000 µg/mL | CAA/HuS MIC ([5]; CAA supplemented with […] human serum): 125 µg/mL | MBEC in CAA supplemented with […] human serum [6]: 0.5 µg/mL | MIC in […] Survanta [7]: 4 µg/mL | MIC in human serum ([…]) in CAA [7]: 0.0625 µg/mL | activity in human serum and pulmonary surfactant [7]: active in human serum and pulmonary surfactant | 25% CAA MIC ([7]; media alone): 1 | resensitization to carbapenems in synergistic combinations ([8]; imipenem (IPM) and meropenem (MEM), carbapenem-resistant isolates): reductions of IPM and MEM MICS to below breakpoint values | FICI ([8]; lysin + imipenem): 0.156 | FICI ([8]; lysin + meropenem): 0.188 | Antibiotic MIC / Lysin MIC, Alone ([8]; vs. WC-452 (Table 22)): 1 | MIC in 25% CAA [9]: 1 µg/mL | MBEC [10]: 1 µg/mL
